Patent publication US20110306057A1 (Dana-Farber, published 2011)
Residue numbers refer to the chain shown, from its start. Names may count otherwise.

B1: GST-tagged SV40 small t antigen (ST) (other)
chain: MDKVLNREESLQLMDLLGLERSAWGNIPLMRKAYLKKCKEFHPDKGGDEEKMKKMNTLYKKMEDGVKYAHQPDFGGFWDATEVFASSLNPGVDAMYCKQWPECAKKMSANCICLLCLLRMKHENRKLYRKDPLVWVDCYCFDCFRMWFGLDLCEGTLLLWCDIIGQTTYRDLKL
notes: also called GST-tagged ST; SV40 ST; not shown: GST tag
B2: HA-tagged RalA S11A mutant (enzyme, not shown: small tags and cut ends)
chain: MAANKPKGQNALALHKVIMVGSGGVGKSALTLQFMYDEFVEDYEPTKADSYRKKVVLDGEEVQIDILDTAGQEDYAAIRDNYFRSGEGFLCVFSITEMESFAATADFREQILRVKEDENVPFLLVGNKSDLEDKRQVSVEEAKNRAEQWNVNYVETSAKTRANVDKVFFDLMREIRARKMEDSKEKNGKKKRKSLAKRIRERC
notes: also called S11A RalA mutant
B3: endogenous RalA (enzyme)
chain: B2 chain with A11S
notes: Endogenous protein in cell lysates; also called small GTPase RalA
B4: PP2A regulatory subunit B55α (other, UniProt P63151 2-447, looked up)
chain: AGAGGGNDIQWCFSQVKGAVDDDVAEADIISTVEFNHSGELLATGDKGGRVVIFQQEQENKIQSHSRGEYNVYSTFQSHEPEFDYLKSLEIEEKINKIRWLPQKNAAQFLLSTNDKTIKLWKISERDKRPEGYNLKEEDGRYRDPTTVTTLRVPVFRPMDLMVEASPRRIFANAHTYHINSISINSDYETYLSADDLRINLWHLEITDRSFNIVDIKPANMEELTEVITAAEFHPNSCNTFVYSSSKGTIRLCDMRASALCDRHSKLFEEPEDPSNRSFFSEIISSISDVKFSHSGRYMMTRDYLSVKIWDLNMENRPVETYQVHEYLRSKLCSLYENDCIFDKFECCWNGSDSVVMTGSYNNFFRMFDRNTKRDITLEASRENNKPRTVLKPRKVCASGKRKKDEISVDSLDFNKKILHTAWHPKENIIAVATTNNLYIFQDKVN
notes: Endogenous protein found in anti-FLAG immune complexes by immunoblot
B5: cancer-derived FLAG-tagged PP2A Aβ mutant V545A (other, UniProt P30154 1-601, looked up, not shown: small tags and cut ends)
chain: MAGASELGTGPGAAGGDGDDSLYPIAVLIDELRNEDVQLRLNSIKKLSTIALALGVERTRSELLPFLTDTIYDEDEVLLALAEQLGNFTGLVGGPDFAHCLLPPLENLATVEETVVRDKAVESLRQISQEHTPVALEAYFVPLVKRLASGDWFTSRTSACGLFSVCYPRASNAVKAEIRQQFRSLCSDDTPMVRRAAASKLGEFAKVLELDSVKSEIVPLFTSLASDEQDSVRLLAVEACVSIAQLLSQDDLETLVMPTLRQAAEDKSWRVRYMVADRFSELQKAMGPKITLNDLIPAFQNLLKDCEAEVRAAAAHKVKELGENLPIEDRETIIMNQILPYIKELVSDTNQHVKSALASVIMGLSTILGKENTIEHLLPLFLAQLKDECPDVRLNIISNLDCVNEVIGIRQLSQSLLPAIVELAEDAKWRVRLAIIEYMPLLAGQLGVEFFDEKLNSLCMAWLVDHVYAIREAATNNLMKLVQKFGTEWAQNTIVPKVLVMANDPNYLHRMTTLFCINALSEACGQEITTKQMLPIVLKMAGDQAANVRFNVAKSLQKIGPILDTNALQGEVKPVLQKLGQDEDMDVKYFAQEAISVLALA
notes: Overexpressed in HEK TER cells
B6: HA-tagged wild-type RalA (enzyme, not shown: small tags and cut ends)
chain: B2 chain with A11S
notes: phosphorylation state not separated; also called HA-tagged RalA; HA-RalA
B7: cancer-derived FLAG-tagged PP2A Aβ mutant G8R (other, UniProt P30154 1-601, looked up, not shown: small tags and cut ends)
chain: B5 chain with G8R, A545V
notes: Overexpressed in HEK TER cells; the shRNA-resistant form carries silent substitutions only; also called G8R Aβ mutant
B8: cancer-derived FLAG-tagged PP2A Aβ mutant P65S (other, UniProt P30154 1-601, looked up, not shown: small tags and cut ends)
chain: B5 chain with P65S, A545V
notes: as for B5

Experiments:
[1] = target: T1, wild type (WT) FLAG epitope-tagged version of PP2A Aβ (UniProt P30154 1-601); experiment: GST pull-down with glutathione-agarose from 293T lysates, immunoblot
T1 construct: also called wtPP2A Aβ; FLAG-tagged Aβ
T1 sequence (P30154 whole entry): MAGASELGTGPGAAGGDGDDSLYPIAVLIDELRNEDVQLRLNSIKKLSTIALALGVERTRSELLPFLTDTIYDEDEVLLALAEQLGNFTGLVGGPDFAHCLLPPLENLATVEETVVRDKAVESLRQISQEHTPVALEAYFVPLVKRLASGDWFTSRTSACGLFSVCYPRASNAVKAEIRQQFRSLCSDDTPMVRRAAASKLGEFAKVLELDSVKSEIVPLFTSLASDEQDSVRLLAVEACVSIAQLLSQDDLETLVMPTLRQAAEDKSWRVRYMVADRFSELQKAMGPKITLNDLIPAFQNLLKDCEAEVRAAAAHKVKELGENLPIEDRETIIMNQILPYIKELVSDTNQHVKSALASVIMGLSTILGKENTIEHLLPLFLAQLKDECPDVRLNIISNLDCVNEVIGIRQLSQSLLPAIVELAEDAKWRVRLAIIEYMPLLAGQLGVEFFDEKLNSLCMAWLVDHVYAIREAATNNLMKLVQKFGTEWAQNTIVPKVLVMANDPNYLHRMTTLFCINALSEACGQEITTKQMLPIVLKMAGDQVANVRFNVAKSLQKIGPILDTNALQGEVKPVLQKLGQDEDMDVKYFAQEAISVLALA

[2] = target: T1, wild type (WT) FLAG epitope-tagged …; experiment: anti-FLAG agarose co-IP from 293T cells, immunoblot
Experimental: (A) Immunoblot showing phosphorylated RalA and total RalA levels in HEK TER cells expressing shGFP or shAβ. Immunoprecipitations were performed using a phosphoserine antibody. Immunoblotting was performed using anti-Ral-antibody. WCL=whole cell lysate. (B) Immunoblot showing interaction between Aβ and RalA mutants.
To determine if these newly identified serine residues were the target of Aβ-containing PP2A complexes, we replaced each of these three serine residues with alanine using site-directed mutagenesis to generate HA-tagged S11A, S183A and S194A RalA mutants. […] We then determined whether these RalA mutants retained the ability to bind Aβ, as follows. Briefly, Aβ-specific complexes were isolated using anti-FLAG agarose followed by immunoblotting using FLAG or RalA specific antibodies.

[3] = target: T1, wild type (WT) FLAG epitope-tagged …; experiment: anti-FLAG (M2) co-IP from 293T cells, RalA immunoblot
[4] = target: T2, FLAG-epitope tagged PP2A Aα (UniProt P30153 1-589); experiment: as above
T2 construct: also called wtPP2A Aα; FLAG-tagged Aα
T2 sequence (P30153 whole entry): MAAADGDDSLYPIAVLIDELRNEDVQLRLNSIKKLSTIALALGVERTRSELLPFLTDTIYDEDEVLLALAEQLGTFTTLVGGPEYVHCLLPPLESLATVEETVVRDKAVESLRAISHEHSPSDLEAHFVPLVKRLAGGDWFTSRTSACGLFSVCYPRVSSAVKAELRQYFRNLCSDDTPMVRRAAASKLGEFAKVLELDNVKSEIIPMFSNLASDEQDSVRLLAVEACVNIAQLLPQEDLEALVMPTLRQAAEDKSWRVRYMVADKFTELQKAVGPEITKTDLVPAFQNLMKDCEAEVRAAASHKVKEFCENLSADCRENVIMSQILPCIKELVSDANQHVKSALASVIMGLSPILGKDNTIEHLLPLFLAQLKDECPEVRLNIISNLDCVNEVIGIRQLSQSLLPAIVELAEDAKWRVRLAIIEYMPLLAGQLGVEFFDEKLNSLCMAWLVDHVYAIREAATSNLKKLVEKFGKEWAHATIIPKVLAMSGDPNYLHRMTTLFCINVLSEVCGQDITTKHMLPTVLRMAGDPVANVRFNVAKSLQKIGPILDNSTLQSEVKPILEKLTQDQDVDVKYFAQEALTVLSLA

[5] = target: B7; experiment: anti-FLAG (M2) co-IP from HEK TER cells, RalA immunoblot
Experimental: (§1) Immunoblot analysis was then performed using antibodies specific to RalA (BD Biosciences, San Jose, Calif.) and FLAG (M2).

[6] = target: T3, cancer-derived FLAG-tagged PP2A Aβ mutant V448A (UniProt P30154 1-601); experiment: as above
T3 construct: Overexpressed in HEK TER cells
T3 sequence (P30154 whole entry V448A): as the sequence (P30154 whole entry) above, with V448A counted along it
Experimental: as §1

[7] = target: T1, wild type (WT) FLAG epitope-tagged …; experiment: anti-FLAG co-IP from HEK TER cells, immunoblot
[8] = target: T4, cancer-derived FLAG-tagged PP2A Aβ mutant ΔE344-E388 (Homo sapiens (Human), UniProt P30154 2-601); experiment: anti-FLAG co-IP from HEK TER cells, immunoblot, densitometry
T4 construct: Deletion of exon 9, in-frame deletion of 45 amino acids; Overexpressed in HEK TER cells; also called D344-388

[9] = target: T5, cancer-derived FLAG-tagged PP2A Aβ mutant L101P/V448A (UniProt P30154 1-601); experiment: as above
T5 construct: Overexpressed in HEK TER cells

[10] = target: T6, PP2A regulatory subunit B56α (human (endogenous in human HEK TER …, UniProt Q15172 2-486, limits assumed)); experiment: anti-FLAG co-IP from HEK TER cells, immunoblot, densitometry; +++ >90%, ++ 50-90%, + <50%
T6 construct: Endogenous protein found in anti-FLAG immune complexes by immunoblot
T6 sequence (Q15172 2-486 limits assumed): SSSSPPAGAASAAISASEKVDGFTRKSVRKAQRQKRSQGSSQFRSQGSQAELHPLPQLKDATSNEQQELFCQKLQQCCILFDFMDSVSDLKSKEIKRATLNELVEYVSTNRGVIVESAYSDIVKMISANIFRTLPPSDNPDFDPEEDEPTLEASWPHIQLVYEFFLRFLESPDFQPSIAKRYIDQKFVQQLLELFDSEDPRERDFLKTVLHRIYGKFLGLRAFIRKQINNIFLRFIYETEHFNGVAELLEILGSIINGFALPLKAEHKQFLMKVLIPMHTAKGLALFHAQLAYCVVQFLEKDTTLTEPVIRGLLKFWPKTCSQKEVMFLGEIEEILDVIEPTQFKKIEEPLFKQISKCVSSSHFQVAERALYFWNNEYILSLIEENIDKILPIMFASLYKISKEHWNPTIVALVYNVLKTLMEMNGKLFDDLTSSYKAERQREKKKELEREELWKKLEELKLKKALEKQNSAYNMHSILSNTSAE

[11] = target: B4; experiment: as above
[12] = target: T7, PP2A regulatory subunit B56ε (human (endogenous in human HEK TER …, UniProt Q16537 2-467, limits assumed)); experiment: as above
T7 construct: Endogenous protein found in anti-FLAG immune complexes by immunoblot
T7 sequence (Q16537 2-467 limits assumed): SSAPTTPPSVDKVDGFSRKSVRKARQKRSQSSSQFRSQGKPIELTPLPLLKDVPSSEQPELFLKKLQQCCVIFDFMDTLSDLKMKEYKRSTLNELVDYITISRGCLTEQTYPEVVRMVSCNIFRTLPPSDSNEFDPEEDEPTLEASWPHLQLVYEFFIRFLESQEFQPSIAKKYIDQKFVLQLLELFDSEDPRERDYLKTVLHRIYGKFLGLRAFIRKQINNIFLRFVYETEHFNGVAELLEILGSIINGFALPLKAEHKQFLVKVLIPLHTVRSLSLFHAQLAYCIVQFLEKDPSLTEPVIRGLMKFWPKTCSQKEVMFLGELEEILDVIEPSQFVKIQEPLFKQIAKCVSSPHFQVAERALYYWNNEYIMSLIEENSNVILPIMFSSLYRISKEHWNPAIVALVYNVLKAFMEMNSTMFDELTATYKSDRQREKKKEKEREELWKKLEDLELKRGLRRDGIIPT

[13] = target: T8, PP2A catalytic subunit Cα (human (endogenous in human HEK TER or …, UniProt P67775 1-309)); experiment: as above
T8 construct: Endogenous protein found in anti-FLAG immune complexes by immunoblot or mass spectroscopy; also called PP2A catalytic Cα
T8 sequence (P67775 whole entry): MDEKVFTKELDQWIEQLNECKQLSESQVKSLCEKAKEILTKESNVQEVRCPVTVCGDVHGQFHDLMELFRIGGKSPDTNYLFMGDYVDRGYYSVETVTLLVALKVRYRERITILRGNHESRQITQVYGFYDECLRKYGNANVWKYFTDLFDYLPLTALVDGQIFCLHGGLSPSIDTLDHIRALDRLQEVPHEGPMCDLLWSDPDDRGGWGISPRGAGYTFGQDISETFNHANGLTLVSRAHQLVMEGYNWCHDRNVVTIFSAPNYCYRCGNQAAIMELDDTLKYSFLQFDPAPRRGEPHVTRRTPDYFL

[14] = target: T9, PP2A regulatory subunit B56γ (human (endogenous in human HEK TER …, UniProt Q13362 1-524)); experiment: anti-FLAG co-IP from HEK TER cells, immunoblot, densitometry
T9 sequence (Q13362 whole entry): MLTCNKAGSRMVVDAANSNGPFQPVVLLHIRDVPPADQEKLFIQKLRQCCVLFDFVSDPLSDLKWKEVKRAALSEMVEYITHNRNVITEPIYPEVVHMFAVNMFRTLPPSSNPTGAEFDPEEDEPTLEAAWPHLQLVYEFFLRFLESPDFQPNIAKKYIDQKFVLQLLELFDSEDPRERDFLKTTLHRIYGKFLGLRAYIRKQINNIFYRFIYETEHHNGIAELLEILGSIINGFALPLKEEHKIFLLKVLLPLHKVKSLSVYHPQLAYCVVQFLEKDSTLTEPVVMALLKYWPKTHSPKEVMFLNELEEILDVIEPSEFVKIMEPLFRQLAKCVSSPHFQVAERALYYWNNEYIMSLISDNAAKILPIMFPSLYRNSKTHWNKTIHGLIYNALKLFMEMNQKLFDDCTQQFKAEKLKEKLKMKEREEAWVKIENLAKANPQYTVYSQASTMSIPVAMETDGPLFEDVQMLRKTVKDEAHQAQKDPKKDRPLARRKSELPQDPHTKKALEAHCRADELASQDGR

[15] = target: T1, wild type (WT) FLAG epitope-tagged …; experiment: reciprocal co-IP (anti-HA, anti-FLAG agarose) from 293T cells, immunoblot
Experimental: HA-tagged wild-type RalA were generated in the retroviral vectors pPs-neo and pBabe-puro. […] The supernatants from the first immunoprecipitation were sequentially incubated with anti-FLAG-agarose (M2), or anti-HA-agarose (HA7) in reciprocal manner. […] Densitometry analysis was performed by using Scion Image Software.

[16] = target: T9, PP2A regulatory subunit B56γ; experiment: anti-FLAG co-IP from HEK TER cells, immunoblot, densitometry; +++ >90%, ++ 50-90%, + <50%

Binder: B1
- binding result [1]: no binding

Binder: B2
- binding result [2]: binds

Binder: B3
- binding result [3]: binds
- binding result [4]: no binding
- binding result [5]: no binding
- binding result [6]: no binding

Binder: B4
- binding result [7]: binds
- binding result [8]: no binding
- binding result [9]: no binding

Binder: B5
- binding level (percent, co-immunoprecipitation densitometry) [10]: < 50%
- binding level (percent, co-immunoprecipitation densitometry) [11]: > 90%
- binding level (percent, co-immunoprecipitation densitometry) [12]: < 50%
- binding level (percent, co-immunoprecipitation densitometry) [13]: < 50%
- binding result [14]: no binding

Binder: B6
- binding result [15]: binds

Binder: B7
- binding level (percent, co-immunoprecipitation densitometry) [16]: < 50%
- binding level (percent, co-immunoprecipitation densitometry) [10]: > 90%
- binding level (percent, co-immunoprecipitation densitometry) [11]: > 90%
- binding level (percent, co-immunoprecipitation densitometry) [12]: > 90%
- binding level (percent, co-immunoprecipitation densitometry) [13]: 50 to 90%

Binder: B8
- binding level (percent, co-immunoprecipitation densitometry) [16]: < 50%
- binding level (percent, co-immunoprecipitation densitometry) [10]: < 50%
- binding level (percent, co-immunoprecipitation densitometry) [11]: > 90%
- binding level (percent, co-immunoprecipitation densitometry) [12]: > 90%
- binding level (percent, co-immunoprecipitation densitometry) [13]: 50 to 90%
